In PMC5603727:

What was measured:
[1] = target: T1, Roquin-1 ROQ domain (SPR, EMSA wild type) (UniProt Q4VGL6 171-326); assay: SPR; 2 mM Mg2+, 10 C; SPR: 10 mM HEPES pH 7.4, 150 mM NaCl, 2 mM MgCl2, 0.005% Tween 20, 10 C, ROQ immobilized; EMSA: 20 mM HEPES pH 7.4, 50 mM NaCl, 1 mM MgCl2, 1 mM DTT, 1 ug/ul BS
T1 sequence: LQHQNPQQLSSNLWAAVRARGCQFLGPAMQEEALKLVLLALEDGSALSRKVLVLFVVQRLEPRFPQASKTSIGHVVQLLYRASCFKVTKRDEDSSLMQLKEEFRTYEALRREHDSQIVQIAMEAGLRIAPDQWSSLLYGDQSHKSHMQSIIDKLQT

Roquin-1 ROQ (171-326) = target: T2, Roquin-1 ROQ (171-326) (UniProt Q4VGL6 171-326); assay: NMR; 298 K; SPR: 10 mM HEPES pH 7.4, 150 mM NaCl, 2 mM MgCl2, 0.005% Tween 20, 10 C, ROQ immobilized; EMSA: 20 mM HEPES pH 7.4, 50 mM NaCl, 1 mM MgCl2, 1 mM DTT, 1 ug/ul BS
T2 sequence: T1 sequence

Roquin-1 ROQ (147-326) = target: T3, Roquin-1 ROQ (147-326) (UniProt Q4VGL6 147-326); assay: EMSA; SPR: 10 mM HEPES pH 7.4, 150 mM NaCl, 2 mM MgCl2, 0.005% Tween 20, 10 C, ROQ immobilized; EMSA: 20 mM HEPES pH 7.4, 50 mM NaCl, 1 mM MgCl2, 1 mM DTT, 1 ug/ul BS
T3 sequence: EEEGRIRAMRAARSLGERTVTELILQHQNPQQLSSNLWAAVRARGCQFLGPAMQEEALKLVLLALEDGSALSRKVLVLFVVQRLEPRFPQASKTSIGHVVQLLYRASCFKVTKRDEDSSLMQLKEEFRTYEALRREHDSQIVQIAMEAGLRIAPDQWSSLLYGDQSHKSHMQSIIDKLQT

Roquin-1 N-term = target: T4, Roquin-1 N-term (UniProt Q4VGL6 2-440); assay: as above
T4 sequence: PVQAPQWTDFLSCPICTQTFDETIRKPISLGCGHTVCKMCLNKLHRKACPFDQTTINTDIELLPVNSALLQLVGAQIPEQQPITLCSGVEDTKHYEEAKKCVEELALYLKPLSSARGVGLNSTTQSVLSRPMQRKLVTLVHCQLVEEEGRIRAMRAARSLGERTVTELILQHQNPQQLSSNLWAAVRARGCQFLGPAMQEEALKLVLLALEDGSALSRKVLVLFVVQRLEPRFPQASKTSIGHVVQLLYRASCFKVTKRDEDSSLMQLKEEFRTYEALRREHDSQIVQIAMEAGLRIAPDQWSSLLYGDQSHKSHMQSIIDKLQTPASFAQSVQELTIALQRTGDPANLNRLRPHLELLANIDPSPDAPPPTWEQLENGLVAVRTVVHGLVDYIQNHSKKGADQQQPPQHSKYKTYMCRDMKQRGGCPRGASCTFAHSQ

B1: Tnf CDE SL (structured_RNA)
RNA: ACAUGUUUUCUGUGAAAACGGAG
[1]
  Kd: 42 ± 19 nM

B2: SELEX-derived ADE SL (structured_RNA)
RNA: UGACUGCGUUUUAGGAGUUA
Roquin-1 ROQ (171-326)
  binding result: binds

B3: Ox40 ADE-like SL (structured_RNA)
RNA: UCCACACCGUUCUAGGUGCUGG
[1]
  Kd: 81 ± 22 nM

B4: Ox40 CDE-like SL (structured_RNA)
RNA: CUAUGUAUGCUAUGCAUACUACC
Roquin-1 ROQ (147-326)
  binding result: binds
Roquin-1 N-term
  binding result: binds

B5: Ox40 ADE-like Mut4 (C8A,G15U) (structured_RNA)
RNA: UCCACACAGUUCUAUGUGCUGG
[1]
  Kd: 234 ± 63 nM

B6: Ox40 ADE-like Mut2 (G9C) (structured_RNA)
RNA: UCCACACCCUUCUAGGUGCUGG
[1]
  binding result: no binding

B7: Ox40 ADE-like Mut3 (U11A,U13G) (structured_RNA)
RNA: UCCACACCGUACGAGGUGCUGG
[1]
  binding result: no binding
